{"source": "patent US20240100133A1", "about": "(SAINT LOUIS UNIVERSITY, published 2024)", "key": {"[1]": {"biological_target": "T1, Toll-like Receptor 4 (TLR4), human, endogenous in primary human monocytes (human, UniProt O00206 24-839)", "T1 construct": "whole, on cells", "T1 sequence (O00206 24-839)": "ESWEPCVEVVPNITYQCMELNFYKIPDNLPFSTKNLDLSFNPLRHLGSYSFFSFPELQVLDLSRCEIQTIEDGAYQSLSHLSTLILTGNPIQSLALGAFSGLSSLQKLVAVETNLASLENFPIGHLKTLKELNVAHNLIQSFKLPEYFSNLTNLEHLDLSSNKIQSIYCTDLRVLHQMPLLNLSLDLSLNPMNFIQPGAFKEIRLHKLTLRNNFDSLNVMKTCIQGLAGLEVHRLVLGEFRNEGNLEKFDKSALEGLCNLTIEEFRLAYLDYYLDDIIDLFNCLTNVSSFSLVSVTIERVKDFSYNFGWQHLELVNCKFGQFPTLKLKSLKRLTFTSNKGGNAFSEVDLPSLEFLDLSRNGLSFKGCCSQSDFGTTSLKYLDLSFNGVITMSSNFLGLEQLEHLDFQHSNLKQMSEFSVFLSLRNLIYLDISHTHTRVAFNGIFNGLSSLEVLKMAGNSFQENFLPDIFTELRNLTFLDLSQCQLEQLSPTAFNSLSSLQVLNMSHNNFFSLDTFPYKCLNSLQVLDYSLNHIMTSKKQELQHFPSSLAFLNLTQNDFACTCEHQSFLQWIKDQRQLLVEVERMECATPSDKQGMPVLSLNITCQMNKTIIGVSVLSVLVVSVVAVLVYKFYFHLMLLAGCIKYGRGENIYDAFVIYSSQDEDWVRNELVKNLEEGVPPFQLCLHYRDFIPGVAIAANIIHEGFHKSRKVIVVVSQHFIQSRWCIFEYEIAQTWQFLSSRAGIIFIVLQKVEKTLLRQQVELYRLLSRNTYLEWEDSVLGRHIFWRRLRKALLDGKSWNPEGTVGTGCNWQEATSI", "test": "co-immunoprecipitation with anti-GzmA from lysates of GzmA-treated human monocytes, western blot for TLR4"}, "[2]": {"biological_target": "T2, Cluster of Differentiation 14 (CD14), human, endogenous in primary human monocytes (human, UniProt P08571 20-345)", "T2 construct": "whole, on cells; also called CD14 receptor", "T2 sequence (looked up)": "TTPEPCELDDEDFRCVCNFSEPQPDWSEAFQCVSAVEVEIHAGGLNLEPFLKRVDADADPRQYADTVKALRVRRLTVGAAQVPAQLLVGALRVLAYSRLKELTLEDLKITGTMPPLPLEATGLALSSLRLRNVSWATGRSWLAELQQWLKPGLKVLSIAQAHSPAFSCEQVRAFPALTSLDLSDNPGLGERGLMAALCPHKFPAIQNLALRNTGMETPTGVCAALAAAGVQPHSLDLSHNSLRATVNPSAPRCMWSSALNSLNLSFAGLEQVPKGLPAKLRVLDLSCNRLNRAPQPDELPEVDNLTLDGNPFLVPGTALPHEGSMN", "test": "co-immunoprecipitation with anti-GzmA from lysates of GzmA-treated human monocytes, western blot for CD14"}}}
{"binder": "Monomeric Granzyme A C93S, recombinant human, His-tagged (GzmA-C93S) (enzyme, Forms only monomers; also called monomeric GzmA; GzmA-monomer; not shown: His tag) IIGGNEVTPHSRPYMVLLSLDRKTICAGALIAKDWVLTAAHCNLNKRSQVILGAHSITREEPTKQIMLVKKEFPYPSYDPATREGDLKLLQLMEKAKINKYVTILHLPKKGDDVKPGTMCQVAGWGRTHNSASWSDTLREVNITIIDRKVCNDRNHYNFNPVIGMNMVCAGSLRGGRDSCNGDSGSPLLCEGVFRGVTSFGLENKCGDPRGPGVYILLSKKHLNWIIMTIKGAV", "values": [{"measurement": "binding result", "setting": "[1]", "value": "no binding"}, {"measurement": "binding result", "setting": "[2]", "value": "no binding"}]}
